Data: US20240392013A1, “IL1RAP ANTIBODIES AND USES THEREOF” (STELEXIS THERAPEUTICS, LLC, priority 2021, published 2024)

Columns and labels:
[1] = system: IL36-induced downstream signaling (phospho-ERK, AKT, p38, NFκB) in HPAC, CAL33, 5637 cells; assay: IL36 signaling in solid tumor cancer cells, Western blot; assay type: cell-based; settings: IL36γ, antibody 20 μg/ml
Procedure: (§1) AML patient samples or cancer cells (AML, chronic myelogenous leukemia (CML), pancreatic, head and neck squamous cell carcinoma (HNSCC), bladder, non-small-cell lung carcinoma (NSCLC), colorectal and triple-negative breast cancer (TNBC)) were seeded in 6-well plates (5×10^5 cells/well) and incubated overnight at 37° C./5% CO2 in humified incubator. In experiments conducted in cancer cell lines, cells were washed 2× with PBS and serum-starved for 3 hours. Following, cells were treated with IL1RAP antibodies at concentration of 20 μg/ml and incubated for 1 h at 37° C./5% CO2 in humidified incubator. After 1 h, cells were treated with IL1β (Invivogen, cat: rcyec-hil1b), IL33 (Adipogen, cat: AG-40B-0160-C010) or IL36 cytokines (R@D, cat: 6836IL) at 100 ng/ml and incubated for 15 more minutes. Cells were harvested on ice after 1× wash with cold PBS and were centrifuged for 5 minutes at 5000 rpm at 4° C. Cells were then lysed with NP-40 buffer for 5 minutes on ice and centrifuged for 15 minutes at 15000 rpm at 4° C. Supernatants were collected and protein concentrations were determined by BCA (Thermofisher, Cat #PI23225). […] After 3× washes, ECL was applied (Thermofisher, Cat #32106) and proteins were detected after exposure to autoradioraphic films (Worldwide medical products, Cat #41101001) and protein intensity was quantitated using ImageJ software.

[2] = system: IL1-induced downstream signaling (phospho-ERK, AKT, p38, NFκB) in A6L, CAL33, 5637, A549, Colo205, HCC70 cells; assay: IL1 signaling in solid tumor cancer cells, Western blot; assay type: cell-based; settings: antibody 20 μg/ml
Procedure: as §1

cyIL1RAP = assay: Kinetics of IL1RAP mAbs by Octet, cynomolgus IL1RAP; assay type: binding
Procedure: (§2) Antibodies were diluted in kinetics buffer (0.1% BSA, 0.02% Tween-20 and 0.05% NaN3 in PBS) and loaded onto 16 channel anti-mouse IgG Fc capture sensors (AMC, Cat #2001073; Sartorius, Göttingen, Germany). Human, huIL1RAP-His (Sino Biological, lot: MB08MA1301), and monkey, cyIL1RAP-His (Lake Pharma, NY, USA; lot:16205819371) proteins were titrated starting from the highest concentration of 100 nM and followed by 50 nM and 25 nM. Purified antibodies were loaded at 5 μg/ml in kinetics buffer. The experimental parameters selected to determine the kinetic constants were Baseline for 60 s, Loading of antibody to sensor for 180 s, Association of analyte to antibody for 120 s, Dissociation for 1200 s and Regeneration in 10 mM Glycine pH 1.7 for 4×30 s.
(§3) Regeneration cycle tracking was selected for 12 cycles. Binding to human and cynomolgus IL1RAP was measured and KD (M) kinetics were calculated. Also, the disassociation rate (Kdis) (1/s) and association rate (Kon) (1/Ms) kinetics were calculated (data not shown).

[3] = system: IL33-induced NFκB activity; assay: HEK-BlueIL33 NFκB Reporter Assay; assay type: cell-based, human; settings: nM range, read-out: IC50, inhibition of IL33-induced NFκB activity
Text: HEK-Blue IL33 (Invivogen, Cat #hkb-hil33) cell line was used to monitor NFκB activity upon stimulation with IL33 cytokine. The secreted embryonic alkaline phosphatase reporter gene (SEAP) is inducible expressed under the control of IFN-β minimal promoter fused to NFκB/AP-1. HEK-BlueIL33 cells were also generated upon stable transfection with human IL1RL1 (ST2) gene. Specificity to IL33 cytokine was achieved by blockage of TNF-α and IL1 response. Cells are maintained in the presence of hygromycin (200 μg/ml), zeocin (100 μg/ml) and blasticidin (10 μg/ml).
(§4) For the functional assay, cells were plated at a density of 5×10^4 cells/well in 96-well plates. Cells were treated with each antibody at the highest concentration of 200 μg/ml followed by seven serial 1:3 dilutions and incubated for 45 minutes at 37° C./5% CO^2 in humified incubator. Cells were then stimulated with IL33 (12 μM) and incubated overnight at 37° C./5% CO2 in humified incubator. Every treatment was conducted in triplicates. Following, supernatants from each well were mixed with Quanti-Blue substrate (Invivogen, Cat #rep-qb1) according to manufacturer's recommendations and secreted SEAP was measured using spectrophotometer at 650 nm.

[4] = system: IL1-induced NFκB activity; assay: HEK-BlueIL1β NFκB Reporter Assay; assay type: cell-based; settings: nM range, read-out: IC50, inhibition of IL1-induced NFκB activity
Procedure: The HEK-Blue IL1β (Invivogen, Cat #hkb-il1b) cell line was used to monitor NFκB activity upon stimulation with IL1β cytokine. In this cell line the secreted embryonic alkaline phosphatase reporter gene (SEAP) is inducibly expressed under the control of IFN-β minimal promoter fused to NFκB/AP-1. Specificity to IL1β cytokine was achieved by blockage of TNF-α response. The cells were maintained in the presence of hygromycin (200 μg/ml) and zeocin (100 μg/ml).
as §4, with “CO2” for “CO^2”, “IL1β” for “IL33”, “(Invivogen, CA USA;” for “(Invivogen,”

hIL1RAP = target: T1, hIL1RAP (Homo sapiens, UniProt Q9NPH3); assay: Kinetics of IL1RAP mAbs by Octet, human IL1RAP; assay type: binding; set-up: extracellular domain His-tagged, Cat #10121-H08H; His; purchased Sino Biological lot MB08MA1301 (catalogue number not given)
T1 sequence (Q9NPH3 21-367 limits assumed): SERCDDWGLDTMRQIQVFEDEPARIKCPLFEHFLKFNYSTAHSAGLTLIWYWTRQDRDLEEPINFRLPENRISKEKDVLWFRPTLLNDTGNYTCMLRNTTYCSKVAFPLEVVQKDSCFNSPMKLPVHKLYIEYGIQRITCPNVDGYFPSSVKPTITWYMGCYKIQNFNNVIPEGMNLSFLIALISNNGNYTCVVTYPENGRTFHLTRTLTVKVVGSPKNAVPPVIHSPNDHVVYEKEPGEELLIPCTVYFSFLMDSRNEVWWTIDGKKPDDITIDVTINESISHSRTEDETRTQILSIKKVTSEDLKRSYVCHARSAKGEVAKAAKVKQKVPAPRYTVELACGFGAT
Procedure: as §2, §3

B1: 74804_45C18A: anti-IL1RAP mAb; VH SEQ ID NO:11, VL SEQ ID NO:27, κ light chain (antibody, V domains shown)
VH: EVQLVESGGGLVKPGGSLRLACAATGFTFSNVWMSWVRQGSGKGLEWVGRIKSKADGGTIDYAAPVKGRFTISRDDSKNTLYLQMNSLKTEDTAMYYCTTGELLGFDYWGQGTLVTVSS
VL: DIVMTQSPLSLPVTPGEPASISCRSGQSLLHSNGFNCLAWYLQKPGQSPQLLIYLGSNRASGVPDRFSGSGSGTDFTLKISRVEAEDVGVYYCMQTLQTPITFGQGTRLEIK
modifications: 74804_45C18A VH; 74804_45C18A VL
For B1, the “Inhibition of IL36 signaling (phosphorylation of ERK, AKT, p38 and NFκB)” value [1] was “Inhibition of IL36 signaling in solid tumor cancer cells”, the “Inhibition of IL1 signaling (phosphorylation of ERK, AKT, p38 and NFκB)” value [2] was “inhibited IL1 signaling in solid tumor cancer cells” and the “cyIL1RAP kdis(1/s)” value (cyIL1RAP) was 0.000291 s⁻¹. For the same molecule, the “cyIL1RAP kon(1/Ms)” value (cyIL1RAP) was 337500 M⁻¹ s⁻¹, the IC50 [3] was 1.37 nM and the IC50 [4] was 0.193 nM. For the same molecule, the “hIL1RAP kdis(1/s)” value (hIL1RAP) was 0.000273 s⁻¹ and the “hIL1RAP kon(1/Ms)” value (hIL1RAP) was 421500 M⁻¹ s⁻¹.
